Data published in the supplement of paper PMC10724198.
± gives the standard deviation of the averaged measurements.

system: Saccharomyces cerevisiae; test: protein stability index of tFT-peptide fusion (C-terminal peptide) (PSI (0-1 scale)); higher = more stable (slower turnover); conditions: genetic background: wild type; temperature: 30 C
Method: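 Multiplexed protein stability (MPS) profiling in S. cerevisiae. Random 12-aa peptides (tFT-X12 library) are fused to the C-terminus of a sfGFP-mCherry tandem fluorescent timer, after mCherry and a GGGS linker. Cells are FACS-sorted into 8 mCherry/sfGFP bins and deep-sequenced. The protein stability index (PSI) is the read-weighted bin average, scaled from 0 (unstable) to 1 (stable). Only peptides with >10 reads are reported; cells were grown at 30 °C in SC-His with glucose.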
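Further: PSI is a weighted mean of sequencing reads over stability bins, variants kept only with over 10 reads, mCherry proximal and sfGFP distal, peptide attached via GGGS linker.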

Row | Sequence | protein stability index
1 | EVVGILSSVNIA | 0.647 ± 0.03
2 | EVWMGIRSLSVV | 0.634 ± 0.096
3 | EWCAVYDQGNRF | 0.818 ± 0.11
4 | EWGWGRIVNGRE | 0.6869 ± 0.0032
5 | EWNKMTKEKNVI | 0.686 ± 0.017
6 | EWNWRSVYGFGE | 0.748 ± 0.027
7 | EYTRGIRKTRRA | 0.608 ± 0.051
8 | FACLGPLRRRLG | 0.682 ± 0.012
9 | FAECVCVVCPLV | 0.6319 ± 0.0053
10 | FAFLPYKGISSS | 0.682 ± 0.05
11 | FALERLWFMSVG | 0.67 ± 0.031
12 | FALPPPPHLNPP | 0.6248 ± 0.0021
13 | FAPFVPGPSIKY | 0.705 ± 0.074
14 | FCCTPAPVPPST | 0.689 ± 0.016
15 | FCEASSSSRISA | 0.744 ± 0.088
16 | FCFFLLGLFCNL | 0.6 ± 0.062
17 | FCFLSALTCLCA | 0.589 ± 0.021
18 | FCGFLFRLSSVL | 0.626 ± 0.025
19 | FCGLWGVGGVAE | 0.704 ± 0.025
20 | FCLAPMLLPGSF | 0.6785 ± 0.0064
21 | FCPSLFLNPHSC | 0.6739 ± 0.00084
22 | FCSDRPWGPCRR | 0.579 ± 0.08
23 | FCSSSSFMCFVQ | 0.629 ± 0.0082
24 | FDAWTHAGMYNW | 0.757 ± 0.058
25 | FDPSFLSVCRSK | 0.72 ± 0.021

Row | Sequence | protein stability index
26 | FDRQQDLTGMEM | 0.769 ± 0.078
27 | FERVLVFENRKY | 0.728 ± 0.051
28 | FESYLRLGLGGR | 0.667 ± 0.09
29 | FEVSGYRNGRAL | 0.694 ± 0.0074
30 | FFDSPHCRYACV | 0.744 ± 0.009
31 | FFFYFPSLNSFV | 0.696 ± 0.073
32 | FFPLRLLPLVPR | 0.645 ± 0.0063
33 | FFPPPPPATPPA | 0.663 ± 0.072
34 | FFSFTTPHLSFA | 0.688 ± 0.054
35 | FFSISPLLPLPF | 0.714 ± 0.2
36 | FFSLVHVLFYGF | 0.54037 ± 0.00016
37 | FFTFTMSIPRWL | 0.617 ± 0.055
38 | FFVCCGTRLIGL | 0.716 ± 0.04
39 | FFVRVVGDLRWE | 0.583 ± 0.019
40 | FFWGRFCLGLWS | 0.568 ± 0.067
41 | FFWGVFFLGLGW | 0.566 ± 0.071
42 | FGCLFFSPLSIH | 0.745 ± 0.043
43 | FGCSRRERKGRG | 0.826 ± 0.016
44 | FGDRGLGIIYFK | 0.7277 ± 0.0023
45 | FGFYTYFRPGLG | 0.698 ± 0.017
46 | FGGGGRGGLLWC | 0.764 ± 0.06
47 | FGGGSWSMRWSW | 0.639 ± 0.024
48 | FGGGWGGGVVLV | 0.691 ± 0.0086
49 | FGGNISIPRSCD | 0.7233 ± 0.004
50 | FGLWSSCGWWWT | 0.64 ± 0.041

Row | Sequence | protein stability index
51 | FGNFCCRWSLGP | 0.66 ± 0.12
52 | FGPAQGYCLVGA | 0.544 ± 0.025
53 | FGRDTDIYLASL | 0.691 ± 0.037
54 | FGSLCPRAHSLV | 0.71 ± 0.011
55 | FGSLMFCLLPLH | 0.6527 ± 0.0026
56 | FGSRYLGVVSGC | 0.656 ± 0.037
57 | FGVGWGDGFFGV | 0.716 ± 0.059
58 | FHGSIVQLTFRA | 0.603 ± 0.047
59 | FHVFTRTVGSVL | 0.643 ± 0.075
60 | FIHVPAYGNVCV | 0.611 ± 0.058
61 | FISPLNFPARPS | 0.7181 ± 0.0015
62 | FIWRFYSLPLGC | 0.623 ± 0.069
63 | FLASPHPPGLSP | 0.693 ± 0.033
64 | FLCILTNGCCYQ | 0.765 ± 0.052
65 | FLFASSGFLGRF | 0.67 ± 0.036
66 | FLFGLGEIDGVR | 0.84 ± 0.034
67 | FLFPTLSPITGC | 0.612 ± 0.05
68 | FLLNPPSLPCYY | 0.727 ± 0.034
69 | FLLPAGLWSSCC | 0.66 ± 0.043
70 | FLLSFPCAHFLL | 0.598 ± 0.056
71 | FLLSILPFISFC | 0.527 ± 0.1
72 | FLLVLVPFCALF | 0.547 ± 0.11
73 | FLNLPLSAFVLL | 0.583 ± 0.062
74 | FLPHSPSLPQLP | 0.67 ± 0.013
75 | FLPPPLAAPFLF | 0.669 ± 0.059

Row | Sequence | protein stability index
76 | FLQAKSQGEHFR | 0.694 ± 0.012
77 | FLRGSSKSISAR | 0.677 ± 0.061
78 | FLSAGLSILAAP | 0.683 ± 0.043
79 | FLSFECRFPFQW | 0.795 ± 0.069
80 | FLSFRLCTAAPV | 0.559 ± 0.031
81 | FLSLGVIARYFL | 0.6325 ± 0.0042
82 | FLSPPSPWPSFP | 0.688 ± 0.059
83 | FLSSPPPPLRVP | 0.694 ± 0.054
84 | FLTPPIPLFSRL | 0.783 ± 0.058
85 | FLTPPSLSLPPP | 0.68 ± 0.0084
86 | FMDLVRSVPTGC | 0.706 ± 0.046
87 | FMFFMGLFVGGW | 0.5401 ± 0.0026
88 | FMSRDPKDDTET | 0.685 ± 0.076
89 | FMYSGIVAIPRG | 0.661 ± 0.025
90 | FNCIFHMLRFLR | 0.656 ± 0.074
91 | FPCIPAAPPIFL | 0.71 ± 0.015
92 | FPFFSSIPPRVV | 0.574 ± 0.069
93 | FPFLPPRSVSPP | 0.696 ± 0.12
94 | FPGGGARAGVGV | 0.724 ± 0.025
95 | FPGVRNGSRFPP | 0.637 ± 0.0067
96 | FPLLAPAVSPHT | 0.662 ± 0.071
97 | FPPFPPLVPSPP | 0.742 ± 0.0049
98 | FPPIDLPPPSPS | 0.687 ± 0.027
